Values quoted from earlier work, collected in publication PMC11765717, “In Vitro Insights into Bacteriocin-Mediated Modulation of Chicken Cecal Microbiota” (International Journal of Molecular Sciences, 2025).

Key:
[1] = ref [67],[76]; cited from earlier work
[2] = tested on: L. ivanovii; parameters: method as in PMID 35170996; details: sensitive strain L. ivanovii; ref [64]; cited from earlier work

Which “Antibacterial activity in conditions mimicking the small intestine, in words” value [1] does the source give for “Pediocin PA-1 (M31L) (KYYGNGVTCGKHSCSVDWGKATTCIINNGALAWATGGHQGNHKC; UniProt P29430 19-62, looked up, variant M31L) [44 aa linear peptide containing two disulfide bridges, M31L variant, prepared by solid-phase peptide synthesis]” here?
The value was “losing its antibacterial activity completely”.

And the “MIC (µg/mL)” value [2]?
The value was 0.09 µg/mL.
